From publication doi:10.1101/2023.03.13.532365

Target: *DsCDTCM, exported bifunctional cyclohexadienyl dehydratase-chorismate mutase fusion enzyme of Duganella sacchari (Duganella sacchari)
Test: crystal structure

- stoichiometry N: 2
Substance: *DsCDTCM, exported bifunctional cyclohexadienyl dehydratase-chorismate mutase fusion enzyme of Duganella sacchari
